The text below walks through data of paper PMC3460626.

The data set deals with T1, LasR (Pseudomonas aeruginosa PA14?) (UniProt A0A0H2Z901).
T1 sequence: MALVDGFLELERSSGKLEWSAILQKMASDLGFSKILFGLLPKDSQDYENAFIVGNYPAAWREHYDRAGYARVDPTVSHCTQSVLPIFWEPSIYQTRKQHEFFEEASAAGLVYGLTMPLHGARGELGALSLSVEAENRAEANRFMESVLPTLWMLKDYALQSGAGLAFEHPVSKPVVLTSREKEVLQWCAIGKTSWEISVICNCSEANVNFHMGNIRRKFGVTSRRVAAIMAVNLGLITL
In words: EMSA. The settings on record: LasR EMSA: 20 mM Tris-HCl pH 7.5, 50 mM KCl, 1 mM EDTA, 1 mM DTT, 100 ug/ml BSA, 10% glycerol, room temp 20 min, 1 pM each specific and nonspecific probe. For orientation: In EMSA bound probe runs differently from free probe, usually more slowly.
Consider “GTCCGAATTCCCGGGAAGCGCCCTGTGACGGACTTCGAATCCTTGCGTCGCGCTCCGTCCTCCGGATTGAGCGGCGCGCTGCGGCGGCCGCGCTCCGGCGCAGCGCCACTGCCAGATCTGGCAGTTGTCGCTGGCGGGGACGGAGGTTTTAGTAGCCGCACTTTTTTCCAGGGCCGGGCAGTGGATCCGGAC (double strand) [PA14_40310 promoter]”, for which the binding entry was “binds”.

Consider “GTCCGAATTCCCGTGCTACCCCCGGCAGGCGTAGCCGCGGCAGCCTGCCTCGGCAAAAAGCCATCAGCCGGCGCGCTTCGACGCCCCTCATACCGCCCTTTCGCCAACTACCAATTCTCATAGTTGTGAGGGGAAATTTGTATCTTATTTTAAATACCCACGAAACATATAAAAACACACACAGCGAAACACTTCGGAAACCGGATCCGGAC (double strand) [PA14_48530 promoter]”, for which the binding result is given as “binds”.

Turning to “GTCCGAATTCCTTCTGATGCCGGCGCGGGCGCCCGGCCGGTATGGCCGGCAAGCCCGTCGACGGCTGTCCAGCTACCAGATCCGGTAGCCCTGCCAGATTTCGCAGGCGACCAGATCTGGCAGGTTGTTGGGCTCCCGGTGCCATGCAACCTATTACGCCTCTCGCCCCCCACCCGTTCGCGCAGGATCCGGAC (double strand) [PA14_37745 promoter]”, the binding entry is “binds”.

For the sequence “GTCCGAATTCGCAATGGCAGACCTTGCCGTTCAGCGACAGGCAGATCGACGCCGACCCGCAACTGCAACGGCTAAGCATTCGCGAATGATAAGCAATGCCTATCAGATCTGATGGGAAAAAAACTGACGGTTTTTCCGCGCTCGTTCGTCTTTAACCATAGAGGCGGCCCACAGCCGCCCGGTTCCAGGGAACACGTGCAGGATCCGGAC (double strand) [PA14_33830 promoter]”, the binding entry is “binds”.

For the sequence “GTCCGAATTCGCGGCTGAATCCGGCTGGGCAGCTGGCGATCATATCGCCAGCCACCCTGCTGGCCCCCGGCGCAGAGCGGCGCGGCTATGCTCGTGCGCCCGGAACGGCCCTATCCGTTCTGGGAGCTACCCCCTCGCCACCCTCGACTAGCATGACCAGGGAGGCCCGCAGTGGACGCCCAGGGCTAGGAGCCGCAGGCGGATCCGGAC (double strand) [PA14_41500 promoter]”, the binding entry is on record as “binds”.

Consider “GTCCGAATTCGGCGGCCCTTTGCCTGCCTCTACCGGCTCACAGTGCGGGTGCCGACCGCTTTGCATTCCGCGACATCCATCAGGAGTGGGTAGCGAATCTGACCGGCCCGTCACATTTGGTAGGGACCTCAAACCGGCACCGAGGGCTAGGATCAGCCCGCTTCGAAATGAATCCGGTTCTGGAAAGGATCCGGAC (double strand) [PA14_53250 (cbpD) promoter]”, for which the binding result is listed as “binds”.

As to “GTCCGAATTCGTGGAGGATCGCGTCGCGCAGCTGGCGATAGAGCTGGCCGACCAGGTCGTGGCGGCCGTCGAGGATCAGTTGCAGTTCCATGGCGAAATTGGCTACCTGGTATTTCTGGTAATTGGCTCTTCGTGGAAGCCAAAGGCAGGCTTAGTGTTACCCCATGCCGCGCCGCTTTCCACTCTCGCGGCTGCCAATCAGCCGGATCCGGAC (double strand) [PA14_03490 promoter]”, the binding entry is “binds”.

Take “GTCCGAATTCTGGATCGTTTCGTCACAGGAAACGCTGGAGCGCCTATTCCAGAGCGCTTCGAACAATCGGTAAAAATAAAATCCAAATAATCAGACGCAGTTCAAAAACAACCAGAACAGATAGTTTTTCCGCCTTTCCCAACATGCTCCTCTCGCCTTGACTCGTTCGATGCAGCGGATCGCCCATGCGTATGTCCGGCATTGGATCCGGAC (double strand) [PA14_07430 promoter]”: the binding result was “binds”.

For the sequence “GTCCGAATTCTTGTTCTATATGTTCGAACTTGGCTTTGCTCGTTGTTTTAATTTTGCGGAATAACCTCTGGAACTATTCATATGAATTTTTGAAAGTTTGGTTTACCTGAGAGATTTATGAGTTGACCTTGTCACGATGGCAGGACTCATGGTTCGCAGGAGTCAACAAACCAGGATCCGGAC (double strand) [PA14_18800 promoter]”, the binding result is “binds”.

For “GTCCGGATCCAGTCGCACGGCGACTGCGCCGCCCCCATGGGCGCGGCGAGTCTCTCATCGGACTGAAGGGAGATTATTGGCGAGAGGACTGCGGCGGATAACCTGGCAGAACTGAACGTATCGTTGAATGGAATTCAACGATACCCAAGCCGGGCGGGAATCGCCCGGGCGAGGCCGCGTTCCCGGTGGCCCGCTCCTCGCCGCTAAGCTTGGAC (double strand) [PA14_33890 promoter]”, the binding result is “binds more weakly”.

In the case of “GTCCGGATCCCGAGGCTCTCCAGAGGAATCCACTGTTGTCTGCCTTATTTTTTATAAATTGTTAACTACCTGTTTTGGTAGGGTTTTCCAAATGGCCATCAATGTCGTTATGATGGCTATAGCCAAGCCGTAAAGGGCATGGACGCAGACGCCTGACGTTTGGCTGAAAATCTTTCATTGGAATTCGGAC (double strand) [lrs2 promoter]”, the binding result is listed as “binds”.

For “GTCCGGATCCGTCCGAACCCATGAGATGGCAAACCAATGACAACCCACTTTGCTCGGCAAATCGCCTCCCAGATCTCACAGTTCGAGGCGCTCGGCCTGGGCTCCACGGGGGCGACGGCATGCCTGGAAGCGAGCGGCCATCCATCGGGCCGATAGCGCTCCACCCCGTCTCGCCTGCCAGAATTCGGAC (double strand) [lrs1 promoter]”, the binding entry is “binds”.

In the case of “GTCCGGATCCGTCTACCGCAGGGCATTCCGGCGTTTGTCGCGATCAGGGCGGGGGCATGGTTGCAGAGACGGCGGAAGGCTTCACCTACCACAATTGGCAGAGTCGCGGCGGCGATGCTCCGCGCCGGGTTCAACCGGCTTCGCTGAGTTCGGCGACCACCACTCCGGGAAGGTCTTTCAGCAGTGCCGGGGACAGCAGGAATTCGGAC (double strand) [PA14_34870 promoter]”, the binding entry is reported as “binds”.

For “GTCCGGATCCGTTGAAGAGTGAAGCCTTTGGGGGAAGGGCCGCCGCGGCGGAATCCAATCCTTCATGTTGCCAGCTTTGGCAGAGGGATGGGGCCGGCGGCGGTTCGCCTTCCTATGTCAGTTTGTCGCAGCGGGCCGGCCCGCCGCGGTTCAGGACCTGTCGCTGGCGGCGATCTTCGCGAATTCGGAC (double strand) [PA14_23220 promoter]”, the binding entry is “no binding”.

Regarding “GTCCGGATCCTTCCGTGAAGTGTTTCAAATAGCCAGCATCCCTGGTCGCTGATGTGGATTGCATAAAACACAGAACGCTCGTACCGGCTCAACTACAAGATCTGGTAGGTGCCAGACAGGGTATGCGGGATTGCTAAGCTGATGCTTCCTGCAATGCCGGAGGTTGTAGCCAAGTTGTAATTTTATTCTTTCGGTACGCAGGAAAGAATTCGGAC (double strand) [PA14_09480 (phzA1) promoter]”, the binding entry is on record as “binds”.
